One block for each molecule: values may come before it.
How the values were obtained:
FjGH65A [1] = target: T1, FjGH65A (Flavobacterium johnsoniae, UniProt A5FBJ5, E472Q); assay: hydrolysis activity; format: biochemical; settings: general acid catalyst mutant
T1 construct: gene Fjoh_4428; residues 24-681, signal peptide removed, N-terminal His6 tag (pET28a), E. coli BL21(DE3); hexamer (433 kDa by gel filtration)

FjGH65A [2] = target: T2, FjGH65A (Flavobacterium johnsoniae, UniProt A5FBJ5, E616Q); assay: hydrolysis activity; format: biochemical; settings: general base catalyst mutant
T2 construct: gene Fjoh_4428; residues 24-681, signal peptide removed, N-terminal His6 tag (pET28a), E. coli BL21(DE3); hexamer (433 kDa by gel filtration)
T2 sequence (A5FBJ5 24-681 E616Q): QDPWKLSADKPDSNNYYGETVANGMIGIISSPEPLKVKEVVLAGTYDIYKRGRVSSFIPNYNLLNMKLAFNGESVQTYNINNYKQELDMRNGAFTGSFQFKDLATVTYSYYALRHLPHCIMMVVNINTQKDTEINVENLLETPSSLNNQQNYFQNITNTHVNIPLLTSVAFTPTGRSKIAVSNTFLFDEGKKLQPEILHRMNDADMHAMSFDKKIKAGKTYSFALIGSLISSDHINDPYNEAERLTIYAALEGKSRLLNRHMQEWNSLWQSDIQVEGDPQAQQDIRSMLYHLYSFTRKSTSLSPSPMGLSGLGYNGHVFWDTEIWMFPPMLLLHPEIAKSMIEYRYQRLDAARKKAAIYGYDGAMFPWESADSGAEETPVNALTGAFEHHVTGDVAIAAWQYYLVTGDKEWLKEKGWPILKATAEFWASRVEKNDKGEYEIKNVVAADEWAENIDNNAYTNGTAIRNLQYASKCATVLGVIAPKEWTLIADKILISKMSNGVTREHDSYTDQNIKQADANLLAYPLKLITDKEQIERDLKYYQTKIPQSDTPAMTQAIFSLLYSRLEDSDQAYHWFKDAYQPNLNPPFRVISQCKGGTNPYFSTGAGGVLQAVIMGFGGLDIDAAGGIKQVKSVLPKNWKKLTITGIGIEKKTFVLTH

FjGH65A [3] = target: T3, FjGH65A (Flavobacterium johnsoniae, UniProt A5FBJ5); assay: X-ray crystal structure of the complex, […] Å; format: binding; settings: crystal cryoprotected with 30% (w/v) glucose; four sites: subsites -1, +1, +2 and linker region
T3 construct: gene Fjoh_4428; residues 24-681, signal peptide removed, N-terminal His6 tag (pET28a), E. coli BL21(DE3); hexamer (433 kDa by gel filtration)

[4] = target: FjGH65A (Fjoh_4428), GH65 α-1,2-glucosidase from Flavobacterium johnsoniae (Flavobacterium johnsoniae); assay: SEC; gel filtration on HiPrep 16/60 Sephacryl S-200 HR, 20 mM sodium citrate buffer (pH 6.0) with 150 mM NaCl; column calibrated with thyroglobulin, ferritin, aldolase, conalbumin and ovalbumin
[5] = target: FjGH65A (Fjoh_4428), GH65 α-1,2-glucosidase from Flavobacterium johnsoniae (Flavobacterium johnsoniae); assay: crystal structure; space group C2, three monomers (MolA, MolB, MolC) in the asymmetric unit; hexamer by the crystallographic two-fold axis, PISA analysis; native 1.54 Å and glucose complex 1.40 Å
[6] = substrate: OC[C@H]1O[C@H](F)[C@H](O)[C@@H](O)[C@@H]1O; assay: hydrolysis kinetics (assay details for this substrate not stated); format: biochemical, Flavobacterium johnsoniae; settings: kinetic conditions for this substrate not stated
Text: hydrolysis kinetics (assay details for this substrate not stated) on FjGH65A

T1 sequence (A5FBJ5 24-681 E472Q): as the sequence (A5FBJ5 24-681 E616Q) above, with E449Q, Q593E counted along it

Molecule: OC[C@H]1O[C@@H](O)[C@H](O)[C@@H](O)[C@@H]1O [β-glucose]
X-ray crystal structure of the complex, 1.40 Å (FjGH65A [3]): Each monomer of FjGH65A binds four β-glucose molecules

B1: FjGH65A (Flavobacterium johnsoniae UW101) (protein)
chain: QDPWKLSADKPDSNNYYGETVANGMIGIISSPEPLKVKEVVLAGTYDIYKRGRVSSFIPNYNLLNMKLAFNGESVQTYNINNYKQELDMRNGAFTGSFQFKDLATVTYSYYALRHLPHCIMMVVNINTQKDTEINVENLLETPSSLNNQQNYFQNITNTHVNIPLLTSVAFTPTGRSKIAVSNTFLFDEGKKLQPEILHRMNDADMHAMSFDKKIKAGKTYSFALIGSLISSDHINDPYNEAERLTIYAALEGKSRLLNRHMQEWNSLWQSDIQVEGDPQAQQDIRSMLYHLYSFTRKSTSLSPSPMGLSGLGYNGHVFWDTEIWMFPPMLLLHPEIAKSMIEYRYQRLDAARKKAAIYGYDGAMFPWESADSGAEETPVNALTGAFEHHVTGDVAIAAWQYYLVTGDKEWLKEKGWPILKATAEFWASRVEKNDKGEYEIKNVVAADEWAENIDNNAYTNGTAIRNLQYASKCATVLGVIAPKEWTLIADKILISKMSNGVTREHDSYTDQNIKQADANLLAYPLKLITDKEQIERDLKYYQTKIPQSDTPAMTQAIFSLLYSRLEDSDQAYHWFKDAYQPNLNPPFRVISECKGGTNPYFSTGAGGVLQAVIMGFGGLDIDAAGGIKQVKSVLPKNWKKLTITGIGIEKKTFVLTH
notes: residues 24-681, signal peptide removed, N-terminal His6 tag (pET28a), E. coli BL21(DE3); hexamer (433 kDa by gel filtration)
Km [6]: 3.1 ± 0.2 mM
kcat [6]: 56.1 ± 1.8 s⁻¹
kcat/Km [6]: 18100 M⁻¹ s⁻¹

Continued, in another order:

activity (% of wild type) (FjGH65A [1]): < 0.1%
activity (% of wild type) (FjGH65A [2]): < 0.1%
Molecule: OC[C@H]1O[C@H](O[C@H]2C(O)O[C@H](CO)[C@@H](O)[C@@H]2O)[C@H](O)[C@@H](O)[C@@H]1O (mixture of isomers) [Kojibiose]

stoichiometry N [4]: 6
Molecule: FjGH65A (Fjoh_4428), GH65 α-1,2-glucosidase from Flavobacterium johnsoniae (enzyme)
stoichiometry N [5]: 6
